Data from US20260242478A1 (published 2026).

What was measured:
[1] = target: T1, Anti-PSMA Fab (SEQ ID NOs: 19, 20); assay: phage ELISA; PSMA Fab on plate pre-incubated with PSMA antigen as competitor, anti-M13 HRP
T1 construct: Biotinylated Fab captured on neutravidin coated plates in the phage ELISA; also called 006 PSMA Fab
Protocol: (§1) Clonal phage were harvested as crude supernatants and screened via standard ELISAs. […] Prior to the addition of clonal phage. wells were incubated with blocking buffer and PSMA antigen or blocking buffer alone. Without washing or aspirating, clonal phage supernatants were then added to the wells and incubated for a short time. Wells were then washed followed by detection of bound phage using a horse radish conjugated anti-M13 antibody.

[2] = target: T1, Anti-PSMA Fab (SEQ ID NOs: 19, 20); assay: phage ELISA; biotinylated PSMA Fab on neutravidin plate, bound phage detected with anti-M13 HRP
Protocol: as §1

[3] = target: T2, Anti-PSMA Fab (SEQ ID NOs: 19, 20); assay: phage ELISA; PSMA Fab on plate pre-incubated with PSMA antigen as competitor, anti-M13 HRP detection;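 also: crude clonal phage supernatants added to Fab-coated wells still holding PSMA antigen in blocking buffer, with bound phage as read-out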
T2 construct: Biotinylated PSMA Fab captured on neutravidin coated plates in the phage ELISA; also called 006 PSMA Fab
Protocol: as §1

[4] = target: T2, Anti-PSMA Fab (SEQ ID NOs: 19, 20); assay: phage ELISA; biotinylated PSMA Fab on neutravidin plate, clonal phage supernatant, anti-M13 HRP detection;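 also: wells preincubated with PSMA antigen in blocking buffer or with blocking buffer only before clonal phage were added for a short incubation, then bound phage detected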
Protocol: as §1

[5] = target: T3, Anti-PSMA Fab (SEQ ID NOs: 19, 20); assay: phage ELISA; biotinylated PSMA Fab on neutravidin plate, clonal phage supernatant, anti-M13-HRP detection;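 also: wells were preincubated with blocking buffer containing PSMA antigen or with blocking buffer only, then phage supernatant was added without washing for a brief incubation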
T3 construct: also called 006 PSMA Fab
Protocol: as §1

[6] = target: T3, Anti-PSMA Fab (SEQ ID NOs: 19, 20); assay: phage ELISA; biotinylated PSMA Fab on neutravidin plate pre-incubated with PSMA antigen as competitor, anti-M13-HRP detection
Protocol: as §1

[7] = target: T4, Anti-PSMA Fab (SEQ ID NOs: 19, 20); assay: phage ELISA; captured PSMA Fab pre-incubated with PSMA antigen as competitor, anti-M13 HRP detection
T4 construct: Biotinylated and captured on neutravidin coated plates in the phage ELISA; also called 006 PSMA Fab
Protocol: as §1

[8] = target: T4, Anti-PSMA Fab (SEQ ID NOs: 19, 20); assay: phage ELISA; biotinylated PSMA Fab captured on neutravidin plate, clonal phage supernatant, anti-M13 HRP detection
Protocol: as §1

LMKWCIPDWMCSHV (Clonal phage of the peptide-180 library) [Phage-2131]
Phage binding ELISA, Anti-PSMA Fab signal in the presence of PSMA [1]: 0.0763 | Phage binding ELISA, Anti-PSMA Fab signal [2]: 1.71

B1: Phage-2151 (peptide)
peptide: YEIRCIPPWMCAFD
notes: Clonal phage of the Peptide-180 library, tested as crude supernatant; not shown: fused to the pIII filament of the bacteriophage
Phage binding ELISA, Anti-PSMA Fab signal in the presence of PSMA [3]: 0.117 | Phage binding ELISA, Anti-PSMA Fab (SEQ ID NOs: 19, 20) signal [4]: 1.68

TERWCVPAWMCTLV [Phage-2135]
Phage binding ELISA, Anti-PSMA Fab (SEQ ID NOs: 19, 20) signal [5]: 1.7 | Phage binding ELISA, Anti-PSMA Fab signal in the presence of PSMA [6]: 0.0741

LVKWCTPPWMCESQ (Clonal phage of the peptide-180 library) [Phage-2130]
Phage binding ELISA, Anti-PSMA Fab signal in the presence of PSMA [1]: 0.0701 | Phage binding ELISA, Anti-PSMA Fab signal [2]: 1.71

AEKWCIPNWMCEAG [Phage-2144]
Phage binding ELISA, Anti-PSMA Fab (SEQ ID NOs: 19, 20) signal [5]: 1.69 | Phage binding ELISA, Anti-PSMA Fab signal in the presence of PSMA [6]: 0.0588

B2: Phage-2150 (peptide)
peptide: VHIWCIPQWMCMDR
notes: as for B1
Phage binding ELISA, Anti-PSMA Fab signal in the presence of PSMA [3]: 0.202 | Phage binding ELISA, Anti-PSMA Fab (SEQ ID NOs: 19, 20) signal [4]: 1.68

B3: Phage-2170 (peptide)
peptide: DENWCKPLWMCKGF
notes: Clonal phage of the peptide-180 library, tested as crude supernatant; not shown: pIII of the bacteriophage, to which the peptide is fused
Phage binding ELISA, Anti-PSMA Fab signal in the presence of PSMA [7]: 0.105 | Phage binding ELISA, Anti-PSMA Fab (SEQ ID NOs: 19, 20) signal [8]: 1.65

B4: Phage-2154 (peptide)
peptide: LDKWCTPEWMCWGI
notes: as for B1
Phage binding ELISA, Anti-PSMA Fab signal in the presence of PSMA [3]: 0.0536 | Phage binding ELISA, Anti-PSMA Fab (SEQ ID NOs: 19, 20) signal [4]: 1.67

VYKWCTPPWMCTQM [Phage-2136]
Phage binding ELISA, Anti-PSMA Fab (SEQ ID NOs: 19, 20) signal [5]: 1.7 | Phage binding ELISA, Anti-PSMA Fab signal in the presence of PSMA [6]: 0.0779

B5: Phage-2169 (peptide)
peptide: ESMLCRPVWMCVGF
notes: as for B3
Phage binding ELISA, Anti-PSMA Fab signal in the presence of PSMA [7]: 0.0711 | Phage binding ELISA, Anti-PSMA Fab (SEQ ID NOs: 19, 20) signal [8]: 1.65

B6: Phage-2161 (peptide)
peptide: EMKWCIPDWMCAAG
notes: as for B1
Phage binding ELISA, Anti-PSMA Fab signal in the presence of PSMA [3]: 0.0716 | Phage binding ELISA, Anti-PSMA Fab (SEQ ID NOs: 19, 20) signal [4]: 1.66

B7: Phage-2153 (peptide)
peptide: EHKWCIPDWMCMVA
notes: as for B1
Phage binding ELISA, Anti-PSMA Fab signal in the presence of PSMA [3]: 0.0728 | Phage binding ELISA, Anti-PSMA Fab (SEQ ID NOs: 19, 20) signal [4]: 1.67

EMKLCRPAWMCEYM [Phage-2141]
Phage binding ELISA, Anti-PSMA Fab (SEQ ID NOs: 19, 20) signal [5]: 1.69 | Phage binding ELISA, Anti-PSMA Fab signal in the presence of PSMA [6]: 0.0727

B8: Phage-2163 (peptide)
peptide: GSHWCIPPWMCQMS
notes: as for B3
Phage binding ELISA, Anti-PSMA Fab signal in the presence of PSMA [7]: 0.0821 | Phage binding ELISA, Anti-PSMA Fab (SEQ ID NOs: 19, 20) signal [8]: 1.66

B9: Phage-2168 (peptide)
peptide: GEKWCIPEWMCVHL
notes: as for B3
Phage binding ELISA, Anti-PSMA Fab signal in the presence of PSMA [7]: 0.065 | Phage binding ELISA, Anti-PSMA Fab (SEQ ID NOs: 19, 20) signal [8]: 1.65

B10: Phage-2147 (peptide)
peptide: VEKWCIPQWMCVSQ
notes: as for B1
Phage binding ELISA, Anti-PSMA Fab signal in the presence of PSMA [3]: 0.0673 | Phage binding ELISA, Anti-PSMA Fab (SEQ ID NOs: 19, 20) signal [4]: 1.69

B11: Phage-2165 (peptide)
peptide: VVPWCIPVWMCNSQ
notes: as for B3
Phage binding ELISA, Anti-PSMA Fab signal in the presence of PSMA [7]: 0.0957 | Phage binding ELISA, Anti-PSMA Fab (SEQ ID NOs: 19, 20) signal [8]: 1.65

B12: Phage-2155 (peptide)
peptide: EGRWCIPSWMCVGV
notes: as for B1
Phage binding ELISA, Anti-PSMA Fab signal in the presence of PSMA [3]: 0.0956 | Phage binding ELISA, Anti-PSMA Fab (SEQ ID NOs: 19, 20) signal [4]: 1.67

DANWCKPTWMCAGF [Phage-2132]
Phage binding ELISA, Anti-PSMA Fab (SEQ ID NOs: 19, 20) signal [5]: 1.7 | Phage binding ELISA, Anti-PSMA Fab signal in the presence of PSMA [6]: 0.109

B13: Phage-2152 (peptide)
peptide: IEKWCTPAWMCYGI
notes: as for B1
Phage binding ELISA, Anti-PSMA Fab signal in the presence of PSMA [3]: 0.077 | Phage binding ELISA, Anti-PSMA Fab (SEQ ID NOs: 19, 20) signal [4]: 1.68

VWHWCTPPWMCNAE [Phage-2143]
Phage binding ELISA, Anti-PSMA Fab (SEQ ID NOs: 19, 20) signal [5]: 1.69 | Phage binding ELISA, Anti-PSMA Fab signal in the presence of PSMA [6]: 0.141

B14: Phage-2149 (peptide)
peptide: ITNWCKPAWMCEVS
notes: as for B1
Phage binding ELISA, Anti-PSMA Fab signal in the presence of PSMA [3]: 0.114 | Phage binding ELISA, Anti-PSMA Fab (SEQ ID NOs: 19, 20) signal [4]: 1.68

B15: Phage-2171 (peptide)
peptide: GDRLCVPEWMCEML
notes: as for B3
Phage binding ELISA, Anti-PSMA Fab signal in the presence of PSMA [7]: 0.0685 | Phage binding ELISA, Anti-PSMA Fab (SEQ ID NOs: 19, 20) signal [8]: 1.65

B16: Phage-2157 (peptide)
peptide: DVIRCTPDWMCTGF
notes: as for B1
Phage binding ELISA, Anti-PSMA Fab signal in the presence of PSMA [3]: 0.064 | Phage binding ELISA, Anti-PSMA Fab (SEQ ID NOs: 19, 20) signal [4]: 1.66

MVNWCTPPWMCWGF [Phage-2145]
Phage binding ELISA, Anti-PSMA Fab (SEQ ID NOs: 19, 20) signal [5]: 1.69 | Phage binding ELISA, Anti-PSMA Fab signal in the presence of PSMA [6]: 0.194

B17: Phage-2158 (peptide)
peptide: FERWCIPAWMCQSD
notes: as for B1
Phage binding ELISA, Anti-PSMA Fab signal in the presence of PSMA [3]: 0.066 | Phage binding ELISA, Anti-PSMA Fab (SEQ ID NOs: 19, 20) signal [4]: 1.66

FEMLCTPPWMCVGL [Phage-2133]
Phage binding ELISA, Anti-PSMA Fab (SEQ ID NOs: 19, 20) signal [5]: 1.7 | Phage binding ELISA, Anti-PSMA Fab signal in the presence of PSMA [6]: 0.0639

IPKWCTPVWMCEGM [Phage-2142]
Phage binding ELISA, Anti-PSMA Fab (SEQ ID NOs: 19, 20) signal [5]: 1.69 | Phage binding ELISA, Anti-PSMA Fab signal in the presence of PSMA [6]: 0.0647

B18: Phage-2164 (peptide)
peptide: DIRWCIPDWMCTET
notes: as for B3
Phage binding ELISA, Anti-PSMA Fab signal in the presence of PSMA [7]: 0.0725 | Phage binding ELISA, Anti-PSMA Fab (SEQ ID NOs: 19, 20) signal [8]: 1.65

EHKWCIPSWMCADM [Phage-2140]
Phage binding ELISA, Anti-PSMA Fab (SEQ ID NOs: 19, 20) signal [5]: 1.69 | Phage binding ELISA, Anti-PSMA Fab signal in the presence of PSMA [6]: 0.108

B19: Phage-2159 (peptide)
peptide: ETKWCFPPWMCAGS
notes: as for B1
Phage binding ELISA, Anti-PSMA Fab signal in the presence of PSMA [3]: 0.337 | Phage binding ELISA, Anti-PSMA Fab (SEQ ID NOs: 19, 20) signal [4]: 1.66

B20: Phage-2160 (peptide)
peptide: AMHWCIPKWMCETS
notes: as for B1
Phage binding ELISA, Anti-PSMA Fab signal in the presence of PSMA [3]: 0.141 | Phage binding ELISA, Anti-PSMA Fab (SEQ ID NOs: 19, 20) signal [4]: 1.66

VQKWCIPEWMCAVA [Phage-2138]
Phage binding ELISA, Anti-PSMA Fab (SEQ ID NOs: 19, 20) signal [5]: 1.7 | Phage binding ELISA, Anti-PSMA Fab signal in the presence of PSMA [6]: 0.0584

EGKWCIPEWMCSAS [Phage-2134]
Phage binding ELISA, Anti-PSMA Fab (SEQ ID NOs: 19, 20) signal [5]: 1.7 | Phage binding ELISA, Anti-PSMA Fab signal in the presence of PSMA [6]: 0.0777

B21: Phage-2148 (peptide)
peptide: IMKLCMPPWMCAAM
notes: as for B1
Phage binding ELISA, Anti-PSMA Fab signal in the presence of PSMA [3]: 0.0907 | Phage binding ELISA, Anti-PSMA Fab (SEQ ID NOs: 19, 20) signal [4]: 1.68

SAPWCIPEWMCFSL [Phage-2146]
Phage binding ELISA, Anti-PSMA Fab (SEQ ID NOs: 19, 20) signal [5]: 1.69 | Phage binding ELISA, Anti-PSMA Fab signal in the presence of PSMA [6]: 0.101

LEKWCTPSWMCIGI [Phage-2139]
Phage binding ELISA, Anti-PSMA Fab (SEQ ID NOs: 19, 20) signal [5]: 1.7 | Phage binding ELISA, Anti-PSMA Fab signal in the presence of PSMA [6]: 0.0773

B22: Phage-2167 (peptide)
peptide: VQKWCVPEWMCGSW
notes: as for B3
Phage binding ELISA, Anti-PSMA Fab signal in the presence of PSMA [7]: 0.0837 | Phage binding ELISA, Anti-PSMA Fab (SEQ ID NOs: 19, 20) signal [8]: 1.65

B23: Phage-2156 (peptide)
peptide: VSKWCTPEWMCTGF
notes: as for B1
Phage binding ELISA, Anti-PSMA Fab signal in the presence of PSMA [3]: 0.0826 | Phage binding ELISA, Anti-PSMA Fab (SEQ ID NOs: 19, 20) signal [4]: 1.67

VLKWCIPTWMCETQ [Phage-2137]
Phage binding ELISA, Anti-PSMA Fab (SEQ ID NOs: 19, 20) signal [5]: 1.7 | Phage binding ELISA, Anti-PSMA Fab signal in the presence of PSMA [6]: 0.0908

B24: Phage-2162 (peptide)
peptide: EVKLCRPPWMCEIF
notes: as for B3
Phage binding ELISA, Anti-PSMA Fab signal in the presence of PSMA [7]: 0.0633 | Phage binding ELISA, Anti-PSMA Fab (SEQ ID NOs: 19, 20) signal [8]: 1.66

B25: Phage-2166 (peptide)
peptide: YEKWCTPAWMCEYQ
notes: as for B3
Phage binding ELISA, Anti-PSMA Fab signal in the presence of PSMA [7]: 0.0648 | Phage binding ELISA, Anti-PSMA Fab (SEQ ID NOs: 19, 20) signal [8]: 1.65
